The text below walks through data of article PMC10786891, “Massively parallel profiling of RNA-targeting CRISPR-Cas13d”.

Numbering of substitutions follows the chain as printed. In names and notes the source's numbering stands.

Sequences and labels used below:
T1: EsCas13d, nuclease-dead (Eubacterium siraeum, UniProt B0MS50, R295A;H300A;R849A;H854A)
T1 sequence: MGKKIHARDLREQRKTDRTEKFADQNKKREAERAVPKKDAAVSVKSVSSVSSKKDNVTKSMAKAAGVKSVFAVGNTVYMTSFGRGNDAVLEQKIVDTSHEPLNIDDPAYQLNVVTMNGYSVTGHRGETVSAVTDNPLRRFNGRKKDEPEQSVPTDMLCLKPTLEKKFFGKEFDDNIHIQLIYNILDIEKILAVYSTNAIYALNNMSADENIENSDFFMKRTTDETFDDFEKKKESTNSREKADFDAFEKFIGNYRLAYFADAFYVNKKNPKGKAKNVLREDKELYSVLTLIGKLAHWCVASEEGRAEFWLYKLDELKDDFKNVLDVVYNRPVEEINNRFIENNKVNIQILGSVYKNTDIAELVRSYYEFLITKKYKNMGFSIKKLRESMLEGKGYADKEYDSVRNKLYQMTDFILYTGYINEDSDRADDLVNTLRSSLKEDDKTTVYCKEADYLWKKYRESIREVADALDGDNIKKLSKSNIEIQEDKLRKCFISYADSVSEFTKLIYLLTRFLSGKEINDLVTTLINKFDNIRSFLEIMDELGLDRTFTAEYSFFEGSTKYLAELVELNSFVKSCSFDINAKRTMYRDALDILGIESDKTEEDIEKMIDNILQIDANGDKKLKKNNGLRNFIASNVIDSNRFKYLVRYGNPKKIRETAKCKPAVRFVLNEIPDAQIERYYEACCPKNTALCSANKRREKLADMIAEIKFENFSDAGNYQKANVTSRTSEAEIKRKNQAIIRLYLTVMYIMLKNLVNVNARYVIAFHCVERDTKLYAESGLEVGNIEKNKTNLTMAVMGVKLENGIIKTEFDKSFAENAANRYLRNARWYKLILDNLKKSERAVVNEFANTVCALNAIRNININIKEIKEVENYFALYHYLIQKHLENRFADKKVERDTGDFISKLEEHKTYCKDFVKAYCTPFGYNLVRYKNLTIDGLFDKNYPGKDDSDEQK

B1: target 1 MT 5'PFS GGC 3'PFS CGG (mixed)
RNA 1: CACCCGUGCAAAAAUGCAGGGGUCUAAAACUGAGCGGAUAACCUCUCUAUGG
RNA 2: GGGAAUGGAUCCACAUCUACGAAUUCGGCCCAUAGAGAGGUUAUCCGCUCACGGAGAUCGGAAGAGCACACGU
B2: target 1 MT 5'PFS GCU 3'PFS CGC (mixed)
RNA 1: B1 RNA 1
RNA 2: B1 RNA 2 with G28C, C29U, G54C
B3: target 1 C7G,C21A (mixed)
RNA 1: B1 RNA 1
RNA 2: B1 RNA 2 with G28U, C29A, C31A, C45G, G53C
B4: target 1 MT 5'PFS UAA 3'PFS AAA (mixed)
RNA 1: B1 RNA 1
RNA 2: B1 RNA 2 with G27U, G28A, C29A, C52A, G53A, G54A
B5: target 1 MT 5'PFS UAA 3'PFS AAC (mixed)
RNA 1: B1 RNA 1
RNA 2: B1 RNA 2 with G27U, G28A, C29A, C52A, G53A, G54C
B6: target 1 MT 5'PFS GAC 3'PFS CUU (mixed)
RNA 1: B1 RNA 1
RNA 2: B1 RNA 2 with G28A, G53U, G54U
B7: target 1 MT 5'PFS GCU 3'PFS CGU (mixed)
RNA 1: B1 RNA 1
RNA 2: B1 RNA 2 with G28C, C29U, G54U
B8: target 1 MT 5'PFS AUG 3'PFS CGG (mixed)
RNA 1: B1 RNA 1
RNA 2: B1 RNA 2 with G27A, G28U, C29G
B9: target 1 MT 5'PFS GUG 3'PFS GGA (mixed)
RNA 1: B1 RNA 1
RNA 2: B1 RNA 2 with G28U, C29G, C52G, G54A
B10: target 1 MT 5'PFS GUC 3'PFS UAG (mixed)
RNA 1: B1 RNA 1
RNA 2: B1 RNA 2 with G28U, C52U, G53A
B11: target 1 MT 5'PFS GUC 3'PFS ACU (mixed)
RNA 1: B1 RNA 1
RNA 2: B1 RNA 2 with G28U, C52A, G53C, G54U
B12: target 1 MT 5'PFS AAG 3'PFS CUG (mixed)
RNA 1: B1 RNA 1
RNA 2: B1 RNA 2 with G27A, G28A, C29G, G53U
B13: target 1 MT 5'PFS GUC 3'PFS UAA (mixed)
RNA 1: B1 RNA 1
RNA 2: B1 RNA 2 with G28U, C52U, G53A, G54A
B14: target 1 MT 5'PFS GAC 3'PFS CUA (mixed)
RNA 1: B1 RNA 1
RNA 2: B1 RNA 2 with G28A, G53U, G54A
B15: target 1 MT 5'PFS GCU 3'PFS CGA (mixed)
RNA 1: B1 RNA 1
RNA 2: B1 RNA 2 with G28C, C29U, G54A
B16: target 1 MT 5'PFS CCG 3'PFS AUU (mixed)
RNA 1: B1 RNA 1
RNA 2: B1 RNA 2 with G27C, G28C, C29G, C52A, G53U, G54U
B17: target 1 MT 5'PFS GUU 3'PFS CCC (mixed)
RNA 1: B1 RNA 1
RNA 2: B1 RNA 2 with G28U, C29U, G53C, G54C
B18: target 1 MT 5'PFS GUU 3'PFS CCA (mixed)
RNA 1: B1 RNA 1
RNA 2: B1 RNA 2 with G28U, C29U, G53C, G54A
B19: target 1 MT 5'PFS GCA 3'PFS UUC (mixed)
RNA 1: B1 RNA 1
RNA 2: B1 RNA 2 with G28C, C29A, C52U, G53U, G54C
B20: target 1 MT 5'PFS GCA 3'PFS UUA (mixed)
RNA 1: B1 RNA 1
RNA 2: B1 RNA 2 with G28C, C29A, C52U, G53U, G54A
B21: target 1 U11C,C21U (mixed)
RNA 1: B1 RNA 1
RNA 2: B1 RNA 2 with G28U, C29A, C31U, U41C, G53C
B22: target 1 A9U,U19A (mixed)
RNA 1: B1 RNA 1
RNA 2: B1 RNA 2 with G28U, C29A, U33A, A43U, G53C
B23: target 1 MT 5'PFS GAC 3'PFS CUC (mixed)
RNA 1: B1 RNA 1
RNA 2: B1 RNA 2 with G28A, G53U, G54C
B24: target 1 MT 5'PFS UGG 3'PFS UAA (mixed)
RNA 1: B1 RNA 1
RNA 2: B1 RNA 2 with G27U, C29G, C52U, G53A, G54A
B25: target 1 MT 5'PFS GAC 3'PFS CUG (mixed)
RNA 1: B1 RNA 1
RNA 2: B1 RNA 2 with G28A, G53U
B26: target 1 MT 5'PFS UAA 3'PFS AAU (mixed)
RNA 1: B1 RNA 1
RNA 2: B1 RNA 2 with G27U, G28A, C29A, C52A, G53A, G54U
B27: target 1 MT 5'PFS UAA 3'PFS AAG (mixed)
RNA 1: B1 RNA 1
RNA 2: B1 RNA 2 with G27U, G28A, C29A, C52A, G53A
B28: target 1 MT 5'PFS GUU 3'PFS CCU (mixed)
RNA 1: B1 RNA 1
RNA 2: B1 RNA 2 with G28U, C29U, G53C, G54U
B29: target 1 MT 5'PFS GUC 3'PFS UAU (mixed)
RNA 1: B1 RNA 1
RNA 2: B1 RNA 2 with G28U, C52U, G53A, G54U
B30: target 1 MT 5'PFS GUU 3'PFS CCG (mixed)
RNA 1: B1 RNA 1
RNA 2: B1 RNA 2 with G28U, C29U, G53C
B31: target 1 MT 5'PFS GCA 3'PFS ACA (mixed)
RNA 1: B1 RNA 1
RNA 2: B1 RNA 2 with G28C, C29A, C52A, G53C, G54A
B32: target 1 MT 5'PFS GUC 3'PFS ACA (mixed)
RNA 1: B1 RNA 1
RNA 2: B1 RNA 2 with G28U, C52A, G53C, G54A
B33: target 1 MT 5'PFS GUC 3'PFS UAC (mixed)
RNA 1: B1 RNA 1
RNA 2: B1 RNA 2 with G28U, C52U, G53A, G54C

This series addresses T1, EsCas13d, nuclease-dead. The series is described as follows: crRNA (strand 1, pre-loaded); Mg2+; 40 mM Tris-HCl pH 7.5, 150 mM NaCl, 6 mM MgCl2, 1 mM DTT, 0.1% Tween-20, 0.2 mg/ml BSA; 25 C; 10 min per concentration, then washed. To be noted: tags: His6-TwinStrep-SUMO cleaved; N-terminal SNAP kept (SNAP-Surface 488); label: 3' end held by stalled T7 RNA polymerase.
On to B1, for which binding was characterised by a dissociation constant (Kd) of 27.5 ± 5.5 nM.

With B2, the Kd amounted to 42.5 ± 15 nM. As to B3, the affinity, expressed as Kd, was 30 ± 2.3 nM.

Turning to B4, the Kd came to 47 ± 15.5 nM. The figure for B5 is 40 ± 11 nM; for B6 it is 12.1 ± 3.65 nM. Molecule B7 came in with a dissociation constant (Kd) of 33.5 ± 8 nM. Next, B8: 47.5 ± 22.5 nM; B9: 20.3 ± 2.5 nM; B10: 17.6 ± 3.35 nM. In turn, B11 displayed a Kd of 16.9 ± 2.05 nM. Next, B12: 16 ± 5 nM; B13: 16 ± 4.3 nM; B14: 15.5 ± 5 nM.

Molecule B15 displayed a Kd of 49.5 ± 17 nM.

For the molecule B16, the Kd worked out at 3.75 ± 1.75 nM. Molecule B17 had a dissociation constant (Kd) of 26.5 ± 8.5 nM.

Take B18: the Kd was 34 ± 8 nM. The figure for B19 is 9.95 ± 1.2 nM; for B20 it is 7.65 ± 1.2 nM; for B21 it is 9.9 ± 0.4 nM.

As to B22, binding was characterised by a dissociation constant (Kd) of 52 ± 10 nM. Next, B23: 24 ± 10 nM; B24: 79.5 ± 27.5 nM.

The molecule B25 yielded a Kd of 19 ± 6.5 nM. Next, B26: 55 ± 16 nM; B27: 66 ± 26 nM; B28: 11.6 ± 1.9 nM. The figure for B29 is 16.1 ± 3.3 nM. Next, B30: 11.2 ± 1.55 nM; B31: 25.5 ± 4.5 nM. B32: the Kd was ~56 nM. The figure for B33 is 15.1 ± 3.8 nM.
